According to paper PMC9636267 (Communications Biology, 2022):

Molecular target: T1, HCoV-229E S ectodomain (17–1115 aa), 229E S trimer (human coronavirus 229E, UniProt P15423 17-1115)
T1 sequence (looked up): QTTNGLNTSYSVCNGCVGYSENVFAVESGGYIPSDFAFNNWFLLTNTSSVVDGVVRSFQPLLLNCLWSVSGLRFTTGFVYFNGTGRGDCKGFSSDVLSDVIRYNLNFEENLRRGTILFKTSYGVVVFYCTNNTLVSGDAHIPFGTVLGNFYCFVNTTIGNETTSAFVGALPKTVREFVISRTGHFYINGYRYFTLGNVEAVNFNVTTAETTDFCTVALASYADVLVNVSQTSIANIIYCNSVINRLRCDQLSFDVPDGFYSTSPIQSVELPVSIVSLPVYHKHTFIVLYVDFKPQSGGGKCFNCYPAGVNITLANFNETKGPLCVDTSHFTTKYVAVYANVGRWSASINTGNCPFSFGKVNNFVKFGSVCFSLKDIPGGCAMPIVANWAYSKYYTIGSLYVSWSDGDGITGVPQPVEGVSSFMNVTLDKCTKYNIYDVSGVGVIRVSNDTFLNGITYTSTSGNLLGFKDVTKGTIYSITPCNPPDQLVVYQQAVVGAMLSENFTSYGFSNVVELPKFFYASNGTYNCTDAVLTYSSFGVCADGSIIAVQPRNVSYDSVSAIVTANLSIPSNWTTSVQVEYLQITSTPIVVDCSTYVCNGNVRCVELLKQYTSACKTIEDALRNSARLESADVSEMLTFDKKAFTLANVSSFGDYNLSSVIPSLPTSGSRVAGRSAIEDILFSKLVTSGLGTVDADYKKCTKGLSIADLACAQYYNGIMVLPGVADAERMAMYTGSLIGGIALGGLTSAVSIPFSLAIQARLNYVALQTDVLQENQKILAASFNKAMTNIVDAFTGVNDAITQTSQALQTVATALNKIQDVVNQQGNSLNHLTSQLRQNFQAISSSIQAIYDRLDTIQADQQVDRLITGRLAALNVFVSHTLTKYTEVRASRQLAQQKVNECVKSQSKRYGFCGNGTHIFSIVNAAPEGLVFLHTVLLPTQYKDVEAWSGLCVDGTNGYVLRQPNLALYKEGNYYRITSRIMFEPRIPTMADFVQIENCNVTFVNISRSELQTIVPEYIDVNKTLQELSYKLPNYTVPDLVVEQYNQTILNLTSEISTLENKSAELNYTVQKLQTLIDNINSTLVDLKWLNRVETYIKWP
Assay: SPR
Conditions: both partners purified

B1: human aminopeptidase N (hAPN), soluble ectodomain (66–967 aa) (receptor, UniProt P15144 66-967, looked up)
chain: DQSKAWNRYRLPNTLKPDSYRVTLRPYLTPNDRGLYVFKGSSTVRFTCKEATDVIIIHSKKLNYTLSQGHRVVLRGVGGSQPPDIDKTELVEPTEYLVVHLKGSLVKDSQYEMDSEFEGELADDLAGFYRSEYMEGNVRKVVATTQMQAADARKSFPCFDEPAMKAEFNITLIHPKDLTALSNMLPKGPSTPLPEDPNWNVTEFHTTPKMSTYLLAFIVSEFDYVEKQASNGVLIRIWARPSAIAAGHGDYALNVTGPILNFFAGHYDTPYPLPKSDQIGLPDFNAGAMENWGLVTYRENSLLFDPLSSSSSNKERVVTVIAHELAHQWFGNLVTIEWWNDLWLNEGFASYVEYLGADYAEPTWNLKDLMVLNDVYRVMAVDALASSHPLSTPASEINTPAQISELFDAISYSKGASVLRMLSSFLSEDVFKQGLASYLHTFAYQNTIYLNLWDHLQEAVNNRSIQLPTTVRDIMNRWTLQMGFPVITVDTSTGTLSQEHFLLDPDSNVTRPSEFNYVWIVPITSIRDGRQQQDYWLIDVRAQNDLFSTSGNEWVLLNLNVTGYYRVNYDEENWRKIQTQLQRDHSAIPVINRAQIINDAFNLASAHKVPVTLALNNTLFLIEERQYMPWEAALSSLSYFKLMFDRSEVYGPMKNYLKKQVTPLFIHFRNNTNNWREIPENLMDQYSEVNAISTACSNGVPECEEMVSGLFKQWMENPNNNPIHPNLRSTVYCNAIAQGGEEEWDFAWEQFRNATLVNEADKLRAALACSKELWILNRYLSYTLNPDLIRKQDATSTIISITNNVIGQGLVWDFVQSNWKKLFNDYGGGSFSFSNLIQAVTRRFSTEYELQQLEQFKKDNEETGFGSGTRALEQALEKTKANIKWVKENKEVVLQWFTENSK
notes: also called recombinant hAPN protein
B1: binds.
